Laboratory results published in US8440629B2, “Cyclic receptor-associated protein (RAP) peptides” (Raptor Pharmaceuticals Inc., priority 2007, dated 2013).
Where a chain is given by its changes, count along the chain named. Names and notes keep the numbering of the source. Values belong to the molecule of their own block, whether it stands above or below them.

Legend:
[1] = test system: CR proteins; assay: Solid phase binding assay in presence of 10 mM EGTA; set-up: species or system human
Protocol: (§1) Purified, refolded CR protein (1 μg) was bound to Nunc Maxisorp™ 96-well plates in TBS pH 8 supplemented with 5 mM CaCl2 (TBSC) overnight at 4° C. Wells were washed with TBSC and then blocked with TBSC containing 2% bovine serum albumin (BSA). RAP ligands were then incubated with the immobilized receptor at a range of concentrations for 2 hours in the above blocking buffer supplemented with 0.05% Tween-20 at room temperature. Control wells contained no added ligand. As an additional control, to determine whether the absence of calcium affected binding, 10 mM EGTA was included in the incubation medium for some samples. Wells were washed with TBSTC and bound ligands detected with polyclonal anti-RAP (BP41/42, 1:1,000, BioMarin). Excess primary antibody was removed and wells washed before incubation with the secondary antibody, HRP-conjugated goat anti rabbit IgG (Bio-Rad). After washing, TMB substrate solutions (Bio-Rad) were added to detect HRP. Color development was stopped with 1N HCl. Absorption at 450 nm was measured with a microplate spectrophotometer (Molecular Devices). Data were plotted and Kd values derived by non-linear regression with the assumption of single-site binding (GraphPad Prism).
Next, the binding of RAP d3 and MegaRAP1 d3 proteins to LRP1 CR3-5 and LRP2 CR89 was assessed. […]

[2] = target: T1, LRP1 CR3-5 (Homo sapiens, UniProt Q07954); assay: Solid phase binding assay
T1 construct: made in house; host or cells: E. coli BL21(DE3) CodonPlus-RIPL, pET30(+)a
Protocol: All expression constructs were sequenced to verify insert sequences and the junctions with the expression vector. Each plasmid was then used to transform BL21(DE3) CodonPlus-RIPL™ cells (Stratagene). Expression of the CR proteins was induced in logarithmic growth-phase cells grown in LB supplemented with 34 μg/mL chloramphenicol, 12.5 μg/mL tetracycline and 15 μg/mL kanamycin by addition of 2 mM IPTG, followed by reduction in incubator temperature to 32° C. and incubation for 4 hours with agitation at […]. Cells were pelleted and resuspended, at 3.5% of the initial culture volume in 10 mM Tris-HCl pH 8, 100 mM NaH2PO4, 8M Urea. Resuspended cells were then frozen in liquid nitrogen, rapidly thawed to 37° C. and sonicated for 10 seconds at an amplitude setting of 60 using a Cole-Parmer CP-130 ultrasonic processor connected to a 3 mm probe. This procedure was repeated three times to effect complete lysis of the cells. Lysates were clarified by spinning twice at 10,000×g in a Sorvall RC-5 centrifuge for 20 minutes at 15° C. Ni-NTA columns (Qiagen Superflow™, 1.5 mL packed bed) were used to purify the CR proteins. Briefly, the resin was equilibrated with two column volumes of lysis buffer. The clarified lysate was then supplemented to 20 mM with imidazole and incubated with the equilibrated Ni-NTA resin overnight at 4° C. The flow-through was discarded. Columns were washed once with one column volume of lysis buffer and then three times with one column volume of TBS pH 8 supplemented with 20 mM imidazole. CR-loaded beads were then removed from the column and CR proteins eluted by incubating at room temperature for 30 minutes with one column volume of the same buffer containing 200 mM imidazole. This step was repeated once and the eluates pooled. Eluted CR protein solutions were then supplemented to 2 M urea, 10 mM CaCl2 and 5 mM DTT. Purified, denatured CR protein solutions were transferred to 3,500 MWCO Slide-A-Lyzer™ (Pierce) cassettes and sequentially dialyzed against a 200-fold excess of 50 mM Tris-HCl pH 8.5, 10 mM CaCl2, 1 mM reduced glutathione, 0.5 mM oxidized glutathione at room temperature overnight and then against TBS supplemented with 5 mM CaCl2 at 4° C. overnight. Protein concentrations were determined by Bradford assay and purity confirmed by SDS-PAGE with Coomassie Brilliant Blue staining.
as §1
From the large number of CR pairs with unique combinations of amino acids at A, C, A′ and C′ within the calcium-binding loop of each CR, CR pairs or triplets were selected to test their binding to RAP d3 (FIG. 2). An additional pair derived from the FDC-8D6 protein was tested, designated 8D6 CR12, having the sequence ([…]) (SEQ ID NO: 91). […]

T1 sequence (Q07954 852-973): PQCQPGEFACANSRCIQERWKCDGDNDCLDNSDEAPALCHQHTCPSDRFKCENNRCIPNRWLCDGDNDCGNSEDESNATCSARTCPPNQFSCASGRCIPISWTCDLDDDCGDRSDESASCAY

- effect of 10 mM EGTA on binding to CR proteins [1]: prevented binding
- binding at 80 nM (in words) ([2]; 80 nM ligand, FIG. 7): only bound to LRP1 CR3-5
B1: RAP d3: third domain of human RAP, amino acids 201-319 of mature RAP, bacterially expressed with hexahistidine and S-peptide tags (SEQ ID NO: 92) (protein, listed as Homo sapiens)
chain: LDRLRRVSHQGYSTEAEFEEPRVIDLWDLEQSANLTDKELEAFREELKHFEAKIEKHNHYQKQLEIAHEKLRHAESVGDGERVSRSREKHALLEGRTKELGYTVKKHLQDLSGRISRAR
modifications: hexahistidine and S-peptide tags

- effect of 10 mM EGTA on binding to CR proteins [1]: prevented binding
- binding to LRP1 CR3-5 (in words) ([2]; solid-phase assay): no significant affinity
B2: MegaRAP1 d3: d3 of RAP variant selected on LRP2 CR89: S213T, E217K, H249Y, E251K, K256A, K270E (SEQ ID NO: 93) (protein, listed as Homo sapiens)
chain: B1 chain with E51K, K56A, K70D
